For data set [1], the target named is T1, SgrAI R134A (UniProt Q9F6L0 1-339, R134A).
T1 sequence: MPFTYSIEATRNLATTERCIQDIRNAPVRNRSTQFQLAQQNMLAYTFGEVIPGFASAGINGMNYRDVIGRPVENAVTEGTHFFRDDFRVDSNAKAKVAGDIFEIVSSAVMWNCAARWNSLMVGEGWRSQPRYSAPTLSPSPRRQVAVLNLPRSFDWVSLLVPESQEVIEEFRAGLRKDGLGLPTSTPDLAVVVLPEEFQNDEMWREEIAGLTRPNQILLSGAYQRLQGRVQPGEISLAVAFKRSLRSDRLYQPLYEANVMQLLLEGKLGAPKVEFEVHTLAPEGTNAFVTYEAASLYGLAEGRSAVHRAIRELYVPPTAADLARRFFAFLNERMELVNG
Nature of the data set: fluorescence anisotropy; 10 mM Ca2+; 20 mM Tris-HOAc pH 8.0 (RT), 50 mM KOAc, 10 mM Ca(OAc)2 (or Mg(OAc)2), 1 mM DTT, 4 C for anisotropy and gel run; 10% glycerol for EMSA and R131A/R134A, none for wild type with 40-mers. The note with it: protein: recombinant; chain copies: 2; label: 5' 32P (S56E, A57E) or 5' fluorescein on top strand (R131A, R134A).

The target of data set [2] is T2, SgrAI R131A (UniProt Q9F6L0 1-339, R131A).
T2 sequence: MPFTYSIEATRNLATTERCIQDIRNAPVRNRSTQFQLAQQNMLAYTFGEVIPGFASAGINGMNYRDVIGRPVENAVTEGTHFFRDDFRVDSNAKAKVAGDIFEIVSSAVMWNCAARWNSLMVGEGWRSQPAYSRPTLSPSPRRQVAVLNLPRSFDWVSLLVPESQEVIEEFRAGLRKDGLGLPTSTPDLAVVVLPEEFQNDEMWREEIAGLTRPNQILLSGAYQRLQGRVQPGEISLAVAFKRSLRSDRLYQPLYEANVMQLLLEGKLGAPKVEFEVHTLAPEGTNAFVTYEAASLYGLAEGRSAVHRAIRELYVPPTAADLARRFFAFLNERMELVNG
The data set is described as above. The note with it: protein: recombinant; chain copies: 2; label: 5' 32P (S56E, A57E) or 5' fluorescein on top strand (R131A, R134A).

Data set [3] addresses T3, SgrAI S56E (UniProt Q9F6L0 1-339, S56E).
T3 sequence: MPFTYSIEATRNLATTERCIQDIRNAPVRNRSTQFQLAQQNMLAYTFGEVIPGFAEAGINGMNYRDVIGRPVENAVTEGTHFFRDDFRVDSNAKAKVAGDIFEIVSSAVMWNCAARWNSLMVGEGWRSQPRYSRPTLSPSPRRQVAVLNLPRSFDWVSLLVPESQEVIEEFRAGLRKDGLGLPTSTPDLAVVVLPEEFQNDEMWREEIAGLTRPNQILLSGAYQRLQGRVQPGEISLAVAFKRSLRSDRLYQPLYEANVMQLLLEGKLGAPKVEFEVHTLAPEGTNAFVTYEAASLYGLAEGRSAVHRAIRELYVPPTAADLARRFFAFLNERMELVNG
Put plainly: EMSA; 10 mM Ca2+; 20 mM Tris-HOAc pH 8.0 (RT), 50 mM KOAc, 10 mM Ca(OAc)2 (or Mg(OAc)2), 1 mM DTT, 4 C for anisotropy and gel run; 10% glycerol for EMSA and R131A/R134A, none for wild type with 40-mers. The note with it: protein: recombinant; chain copies: 2; label: 5' 32P (S56E, A57E) or 5' fluorescein on top strand (R131A, R134A). (In EMSA bound probe runs differently from free probe, usually more slowly.)

The target in data set [4] is T4, SgrAI A57E (UniProt Q9F6L0 1-339, A57E).
T4 sequence: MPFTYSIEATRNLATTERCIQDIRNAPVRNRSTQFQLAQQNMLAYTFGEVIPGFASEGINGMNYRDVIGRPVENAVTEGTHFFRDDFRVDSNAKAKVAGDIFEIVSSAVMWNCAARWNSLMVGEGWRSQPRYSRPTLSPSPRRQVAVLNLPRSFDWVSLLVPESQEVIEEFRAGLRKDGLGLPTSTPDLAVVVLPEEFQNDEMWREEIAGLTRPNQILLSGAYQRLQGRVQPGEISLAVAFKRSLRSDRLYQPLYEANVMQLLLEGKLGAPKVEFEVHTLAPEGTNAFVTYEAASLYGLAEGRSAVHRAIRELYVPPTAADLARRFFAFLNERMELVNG
The description is as above. The note with it: protein: recombinant; chain copies: 2; label: 5' 32P (S56E, A57E) or 5' fluorescein on top strand (R131A, R134A).

The target in data set [5] is T5, SgrAI wild type (UniProt Q9F6L0 1-339).
T5 sequence: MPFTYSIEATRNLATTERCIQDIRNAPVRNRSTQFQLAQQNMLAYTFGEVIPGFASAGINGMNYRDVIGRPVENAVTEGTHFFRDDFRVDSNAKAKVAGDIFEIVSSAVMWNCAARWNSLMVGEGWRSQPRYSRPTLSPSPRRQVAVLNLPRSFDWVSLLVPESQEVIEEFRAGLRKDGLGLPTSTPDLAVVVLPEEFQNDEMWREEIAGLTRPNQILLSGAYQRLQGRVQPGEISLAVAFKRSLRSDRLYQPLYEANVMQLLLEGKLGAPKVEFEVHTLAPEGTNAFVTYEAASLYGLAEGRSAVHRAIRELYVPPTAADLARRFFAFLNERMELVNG
Nature of the data set: fluorescence anisotropy; 10 mM Ca2+; 20 mM Tris-HOAc pH 8.0 (RT), 50 mM KOAc, 10 mM Ca(OAc)2 (or Mg(OAc)2), 1 mM DTT, 4 C for anisotropy and gel run; 10% glycerol for EMSA and R131A/R134A, none for wild type with 40-mers. As to conditions: protein: recombinant, tags: none (untagged wild type; a C-terminal 6xHis version was also made), chain copies: 2.

The target of data set [6] is T5, SgrAI wild type. Nature of the data set: fluorescence anisotropy; 10 mM Mg2+; 20 mM Tris-HOAc pH 8.0 (RT), 50 mM KOAc, 10 mM Ca(OAc)2 (or Mg(OAc)2), 1 mM DTT, 4 C for anisotropy and gel run; 10% glycerol for EMSA and R131A/R134A, none for wild type with 40-mers. As to conditions: protein: recombinant; tags: none (untagged wild type; a C-terminal 6xHis version was also made); chain copies: 2; label: 5' Hex (Methods).

Setting [7] is: label: 5' fluorescein on top strand.

By Kd is commonly meant the concentration at which binding is half-saturated.

B1: PC DNA (dsDNA)
DNA 1: GATGCGTGGGTCTTCACA
DNA 2: CCGGTGTGAAGACCCACGCATC
As to B1, the Kd in data set [1] worked out at 13 ± 6 nM; in data set [2], 60 ± 20 nM; in data set [3], 0.26 ± 0.02 nM; in data set [4] it was 5 ± 2 nM.

B2: 40-2A (dsDNA)
DNA 1: GATGCGTGGGTCTTCACACCGGGGGTCTGCTCAAAATGAG
DNA 2: CTCATTTTGAGCAGACCCCCGGTGTGAAGACCCACGCATC
In the case of B2, the dissociation constant Kd in data set [5] (setting [7]) amounted to 27 ± 2 nM.

B3: 40-2B (dsDNA)
DNA 1: GATGCGTGGGTCTTCACACCGGTCGTCTGCTCAAAATGAG
DNA 2: CTCATTTTGAGCAGACGACCGGTGTGAAGACCCACGCATC
For the molecule B3, the Kd in data set [5] (setting [7]) came out at 17 ± 3 nM.

B4: 40-NCTA (40-NC-TA) (dsDNA)
DNA 1: GATGCGTGGGTCTTCACTCCGGAGGTCTGCTCAAAATGAG
DNA 2: CTCATTTTGAGCAGACCTCCGGAGTGAAGACCCACGCATC
For the molecule B4, the dissociation constant (Kd) is 2.8 ± 0.5 nM in data set [6] and 0.5 ± 0.1 nM in data set [5] (label: 5' Hex (Methods)).

Source of the values: PMC4399878, “Probing the Run-On Oligomer of Activated SgrAI Bound to DNA”.
